Source: US20240392013A1, “IL1RAP ANTIBODIES AND USES THEREOF” (STELEXIS THERAPEUTICS, LLC, priority 2021, published 2024)

Columns and labels:
cyIL1RAP = assay: Kinetics of IL1RAP mAbs by Octet, cynomolgus IL1RAP; format: binding
Experimental: (§1) Antibodies were diluted in kinetics buffer (0.1% BSA, 0.02% Tween-20 and 0.05% NaN3 in PBS) and loaded onto 16 channel anti-mouse IgG Fc capture sensors (AMC, Cat #2001073; Sartorius, Göttingen, Germany). Human, huIL1RAP-His (Sino Biological, lot: MB08MA1301), and monkey, cyIL1RAP-His (Lake Pharma, NY, USA; lot:16205819371) proteins were titrated starting from the highest concentration of 100 nM and followed by 50 nM and 25 nM. Purified antibodies were loaded at 5 μg/ml in kinetics buffer. The experimental parameters selected to determine the kinetic constants were Baseline for 60 s, Loading of antibody to sensor for 180 s, Association of analyte to antibody for 120 s, Dissociation for 1200 s and Regeneration in 10 mM Glycine pH 1.7 for 4×30 s.
(§2) Regeneration cycle tracking was selected for 12 cycles. Binding to human and cynomolgus IL1RAP was measured and KD (M) kinetics were calculated. Also, the disassociation rate (Kdis) (1/s) and association rate (Kon) (1/Ms) kinetics were calculated (data not shown).

[1] = test system: IL1-induced NFκB activity; assay: HEK-BlueIL1β NFκB Reporter Assay; format: cell-based; settings: nM range, read-out: IC50, inhibition of IL1-induced NFκB activity
Experimental: The HEK-Blue IL1β (Invivogen, Cat #hkb-il1b) cell line was used to monitor NFκB activity upon stimulation with IL1β cytokine. In this cell line the secreted embryonic alkaline phosphatase reporter gene (SEAP) is inducibly expressed under the control of IFN-β minimal promoter fused to NFκB/AP-1. Specificity to IL1β cytokine was achieved by blockage of TNF-α response. The cells were maintained in the presence of hygromycin (200 μg/ml) and zeocin (100 μg/ml).
For the functional assay, cells were plated at a density of 5×10^4 cells/well in 96-well plates. Cells were treated with each antibody at the highest concentration of 200 μg/ml followed by seven serial 1:3 dilutions and incubated for 45 minutes at 37° C./5% CO2 in humified incubator. Cells were then stimulated with IL1β ([…]) and incubated overnight at 37° C./5% CO2 in humified incubator. Every treatment was conducted in triplicates. Following, supernatants from each well were mixed with Quanti-Blue substrate (Invivogen, CA USA; Cat #rep-qb1) according to manufacturer's recommendations and secreted SEAP was measured using spectrophotometer at 650 nm.

[2] = test system: IL33-induced NFκB activity; assay: HEK-BlueIL33 NFκB Reporter Assay; format: cell-based, human; settings: nM range, read-out: IC50, inhibition of IL33-induced NFκB activity
From the text: HEK-Blue IL33 (Invivogen, Cat #hkb-hil33) cell line was used to monitor NFκB activity upon stimulation with IL33 cytokine. The secreted embryonic alkaline phosphatase reporter gene (SEAP) is inducible expressed under the control of IFN-β minimal promoter fused to NFκB/AP-1. HEK-BlueIL33 cells were also generated upon stable transfection with human IL1RL1 (ST2) gene. Specificity to IL33 cytokine was achieved by blockage of TNF-α and IL1 response. Cells are maintained in the presence of hygromycin (200 μg/ml), zeocin (100 μg/ml) and blasticidin (10 μg/ml).
For the functional assay, cells were plated at a density of 5×10^4 cells/well in 96-well plates. Cells were treated with each antibody at the highest concentration of 200 μg/ml followed by seven serial 1:3 dilutions and incubated for 45 minutes at 37° C./5% CO^2 in humified incubator. Cells were then stimulated with IL33 (12 μM) and incubated overnight at 37° C./5% CO2 in humified incubator. Every treatment was conducted in triplicates. Following, supernatants from each well were mixed with Quanti-Blue substrate (Invivogen, Cat #rep-qb1) according to manufacturer's recommendations and secreted SEAP was measured using spectrophotometer at 650 nm.

[3] = test system: IL1-induced downstream signaling (phospho-ERK, AKT, p38, NFκB) in A6L, CAL33, 5637, A549, Colo205, HCC70 cells; assay: IL1 signaling in solid tumor cancer cells, Western blot; format: cell-based; settings: antibody 20 μg/ml
Experimental: (§3) AML patient samples or cancer cells (AML, chronic myelogenous leukemia (CML), pancreatic, head and neck squamous cell carcinoma (HNSCC), bladder, non-small-cell lung carcinoma (NSCLC), colorectal and triple-negative breast cancer (TNBC)) were seeded in 6-well plates (5×10^5 cells/well) and incubated overnight at 37° C./5% CO2 in humified incubator. In experiments conducted in cancer cell lines, cells were washed 2× with PBS and serum-starved for 3 hours. Following, cells were treated with IL1RAP antibodies at concentration of 20 μg/ml and incubated for 1 h at 37° C./5% CO2 in humidified incubator. After 1 h, cells were treated with IL1β (Invivogen, cat: rcyec-hil1b), IL33 (Adipogen, cat: AG-40B-0160-C010) or IL36 cytokines (R@D, cat: 6836IL) at 100 ng/ml and incubated for 15 more minutes. Cells were harvested on ice after 1× wash with cold PBS and were centrifuged for 5 minutes at 5000 rpm at 4° C. Cells were then lysed with NP-40 buffer for 5 minutes on ice and centrifuged for 15 minutes at 15000 rpm at 4° C. Supernatants were collected and protein concentrations were determined by BCA (Thermofisher, Cat #PI23225). […] After 3× washes, ECL was applied (Thermofisher, Cat #32106) and proteins were detected after exposure to autoradioraphic films (Worldwide medical products, Cat #41101001) and protein intensity was quantitated using ImageJ software.

[4] = test system: IL36-induced downstream signaling (phospho-ERK, AKT, p38, NFκB) in HPAC, CAL33, 5637 cells; assay: IL36 signaling in solid tumor cancer cells, Western blot; format: cell-based; settings: IL36γ, antibody 20 μg/ml
Experimental: as §3

hIL1RAP = target: T1, hIL1RAP (Homo sapiens, UniProt Q9NPH3); assay: Kinetics of IL1RAP mAbs by Octet, human IL1RAP; format: binding; design: extracellular domain His-tagged, Cat #10121-H08H; His; purchased Sino Biological lot MB08MA1301 (catalogue number not given)
T1 sequence (Q9NPH3 21-367 limits assumed): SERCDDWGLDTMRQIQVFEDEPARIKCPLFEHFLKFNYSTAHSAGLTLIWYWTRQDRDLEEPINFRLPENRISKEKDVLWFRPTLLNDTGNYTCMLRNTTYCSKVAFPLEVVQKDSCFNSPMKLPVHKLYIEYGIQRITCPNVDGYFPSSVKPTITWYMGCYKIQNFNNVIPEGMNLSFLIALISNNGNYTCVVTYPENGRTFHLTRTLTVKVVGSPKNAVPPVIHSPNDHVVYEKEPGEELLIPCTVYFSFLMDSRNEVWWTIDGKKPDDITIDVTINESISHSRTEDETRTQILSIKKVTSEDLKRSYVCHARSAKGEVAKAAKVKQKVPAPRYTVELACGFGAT
Experimental: as §1, §2

B1: 74804_45C18A: anti-IL1RAP mAb; VH SEQ ID NO:11, VL SEQ ID NO:27, κ light chain (antibody, V domains shown)
VH: EVQLVESGGGLVKPGGSLRLACAATGFTFSNVWMSWVRQGSGKGLEWVGRIKSKADGGTIDYAAPVKGRFTISRDDSKNTLYLQMNSLKTEDTAMYYCTTGELLGFDYWGQGTLVTVSS
VL: DIVMTQSPLSLPVTPGEPASISCRSGQSLLHSNGFNCLAWYLQKPGQSPQLLIYLGSNRASGVPDRFSGSGSGTDFTLKISRVEAEDVGVYYCMQTLQTPITFGQGTRLEIK
modifications: 74804_45C18A VH; 74804_45C18A VL
cyIL1RAP kdis(1/s) (cyIL1RAP): 0.000291 s⁻¹
cyIL1RAP kon(1/Ms) (cyIL1RAP): 337500 M⁻¹ s⁻¹
IC50 [1]: 0.193 nM
IC50 [2]: 1.37 nM
Inhibition of IL1 signaling (phosphorylation of ERK, AKT, p38 and NFκB) [3]: inhibited IL1 signaling in solid tumor cancer cells
Inhibition of IL36 signaling (phosphorylation of ERK, AKT, p38 and NFκB) [4]: Inhibition of IL36 signaling in solid tumor cancer cells
hIL1RAP kdis(1/s) (hIL1RAP): 0.000273 s⁻¹
hIL1RAP kon(1/Ms) (hIL1RAP): 421500 M⁻¹ s⁻¹
